Data on 20 sequences can be found in the DeepSol protein solubility set.

The series can be described thus: soluble on expression in E. coli; label from the status in PepcDB or PDB records.
Take “MSRDSGNDSEVAVTHGEVQEITEENPEIGSMHITQETDISDAPETNTDSSRQRTESTTSVSSESWQNNDEMMSNLRRAQRLLDDGATPLQIIQQIFPDFNASRIATMSENAHFAILSDLLERAPVRQKLTNYNSLADAVELFKTKKHILVLTGAGVSVSCGIPDFRSKDGIYARLRSEFPDLPDPTAMFDIRYFRENPAPFYNFAREIFPGQFVPSVSHRFIKELETSGRLLRNYTQNIDTLEHQTGIKRVVECHGSFSKCTCTRCGQKYDGNEIREEVLAMRVAHCKRCEGVIKPNIVFFGEDLGREFHQHVTEDKHKVDLIVVIGSSLKVRPVALIPHCVDKNVPQILINRESLPHYNADIELLGNCDDIIRDICFSLGGSFTELITSYDSIMEQQGKTKSQKPSQNKRQLISQEDFLNICMKEKRNDDSSDEPTLKKPRMSVADDSMDSEKNNFQEIQKHKSEDDDDTRNSDDILKKIKHPRLLSITEMLHDNKCVAISAHQTVFPGAECSFDLETLKLVRDVHHETHCESSCGSSCSSNADSEANQLSRAQSLDDFVLSDEDRKNTIHLDLQRADSCDGDFQYELSETIDPETFSHLCEEMRI”: the “soluble on expression in E. coli” value is “not soluble”. With “MITQNIESLNNIAKIQHAANTDYLTDLANRRAFFRSAESRIKEYINKKVPYCLAMIDVDFFKKVNDTYGHDSGDQVLKVIALYMRKHFGAGLTARLGGEEFAVLLHGLDADYLHNKLDDFRREIAVSSIPAGDTSISITLSLGVVFDSEDELSKQMNEADNALYAAKENGRNQIVVFGAELDDLEHHHHHH”, the “soluble on expression in E. coli” value is given as “soluble”. In the case of “TLYDKVWDQHKVTTLPNGQDQLFVGLHLIHEVTSPQAFGMIKERGLEVARPDLTHATVDHIVPTANQDRPYSDDAAETMMAELEENVRDAGIQFSDPTTGDQGIVHVIGPEQGITQPGKTIVCGDSHTSTHGAFGALAFGIGTSQIRDVLATQTIAMEKQKV”, the “soluble on expression in E. coli” value is given as “not soluble”.

Turning to “TKDFAFDLNVNMAHNVSKVKELAPEENVNYMFFNGDGNFPVKVGTRAGHKLGEIYATSLYKRNENGDIIVNENGLPMTVTNESEYVNKPIGNIQPKLTMSVSPTFTYKGITLSALFDMKFGGDIFSYSEMLATGNGLAKRTLNRGEENNYMMVFPGVTESGEVNTKQVSASEYYGALQAEDFIYDASFIKLKELSIGYSFPSSMLKKTPVNSLNVSFVARNLCYLMKHTPGTSPEGGYDTTMFSQAIDYASLPFTRTFGISINLGF”, the “soluble on expression in E. coli” value is reported as “not soluble”. For “MGSDKIHHHHHHMQTFPAYSSMQLSLSPTQCQPLKIIALGDSLVYGFGDPDKGGWVEQLRRWWMLPDSSGHVLYNLGVRGDRTQQVAQRLEVEFRHRGELRNRVPDLIILSVGVNDSARLTRLNGRNCTDFALFESEIASLLDQAQQLCPVLFVGMVPVDEAKMPFLNCFYFNHADQYRYKEATRIACNQRQIPYLDIFDQWMARGDAWRNKRLTEDGLHPNTLGYQSLLEDVIHWEHLAGYHTRPDYQLK”, the “soluble on expression in E. coli” value is reported as “not soluble”.

In the case of “GLGFETMRDGIKVAAKETLLTPRFYTTDFDEMEQLFSKEINPNLDMEELNACLNEFRNDYNKVHFVRNETFKAAADKVTGETRRIFIEFLERSCTAEFSGFLLYKELARRMKASSPEVAEMFLLMSRDEARHAGFLNKALSDFNLALDLGFLTKNRTYTYFKPKFIIYATFLSEKIGYWRYITIYRHLQRNPDNQFYPLFEYFENWCQDENRHGDFLAACLKAKPELLNTFEAKLWSKFFCLSVYITMYLNDHQRTKFYESLGLNTRQFNQHVIIETNRATERLFPVVPDVEDPRFFEILNKMVDVNAKLVELSASSSPLAGLQKLPLLERMASYCLQLLFFKEKDVGSVDIAGSGASRNLAY”, the “soluble on expression in E. coli” value is recorded as “not soluble”. Consider “MLSFLQSFFKSLGYEDYFKPIAPSSPRFFTKYCNETQKKITIVIDSNNIIRPFVFDESNEREPLFVAHLGCSECMRWNRMYGENIAENNEPETDSEDETDYESETSDSELGQDSPNPNLSEALNNCIENFDQLVDEVVRHKDFHERSQLLRVLEECLGNMNSFLQNENLTVDDISTGACALLNETAEKLKQMFSSSGISGRKESSEGTNKDLIKFGELEIRGDEEEDDDDESYVEGEEEDSSDEDLDDEDQEGESSIEPRLSETFKKSEARESLSSKEAPVKDLVIYQKFRDEHEDLEESENEPRMSDEAEKLVEDKIIEESDEDSFDIIGRDEELDDDSNGKEEEELELDVTQEDSEDDEQFFSL”, for which the “soluble on expression in E. coli” value is given as “not soluble”.

Take “MGSDKIHHHHHHMENSQQHTDFRQRLELLIGSEKPYAWAARNGLNKGSFTNMWYKGGVPRIGTAQKIAANSGCRVEWLLYGEGPMQDECAQAHDAPMPAGLPALSPLADADEHEVPAGVQEEFCFIPRYNLKASAGFGTSAAGEQPMFYMAFRRYWVKNYLNASPRNLVVISVKGDSMSGVLEDRDTILVNTAERHPGEGLFVIRIGDDIFVKQLQRLPGGAVQVKSANPLYETFTVDLSRASGEFEVIGRVVWFGRQIA”: the “soluble on expression in E. coli” value was “not soluble”.

In the case of “TPSRVEAFDNSNIHGTDPVSAMVTFLDGKPSKNDYRKYKIKTVEGPDDYATMREVIRRRYWRVLKEGLPMPDLILIDGGKGQIDSAKDVLTNELGLDIPVAGLAKDDKHRTSQLLFGDPLEIVPLERNSQEFYLLQRMQDEVHRFAITFHRQLRSKTGFQSILDGIPG”, the “soluble on expression in E. coli” value was “not soluble”. The entry for “MSLVKNEEKLLEVINKYELNSIFSQEIMPFLELHMFKKNEHICFMNEELNYLYFFVHGKAKVYKTLPNGKSLLLEFYEPVQLIGDLELISKIKANCNVKALKSSLCIAIPIQAVNSIALKDLNFLMYITKNLSNKLAKCSVTSSITITYPLETKLASYLLAMNSNNIIMIDNYSNLADLLGTSYRHLNRVLNKLVEKGIILKDKNEIKILNKEELENICVDLNEGHHHHHH” is “soluble”; for “MAGDPMNIDYSVLKKYPLCDRCFGRLYGKLIRSSNFDRGHALKLAKAIELEEDLRTALEKMNETPENSEVNPTDLEKLEEIKELMYALHKTGTSGIKLDLIDDIEKYETKFKNEAEYEKNEECDELCPWCKGIFEPENIEKVAENVVEALSEYEFDSFLVGTKLPKRFKELENEIETPFMESIRQEFGRELGKVVVPLIKRRVDKENPDIVVMVNPYNQKVTLQVNPVFIKGRYKKLVRGIPQSHWDCRSCRGKGCEKCNFTGKQYMTSVEEIIAEPFMDVMKGSSEALHGAGREDIDVRMLGHGRPFVIEIKEPKIRKVNLEELASKVNESGNVEIINVEYGVKKDVHFFKNEPHKKTYLAHVECEEKVSNEEVAELVKKLEDLTIDQRTPDRVSHRRADLVRVRKVYKAWPHMIDDYNFELKIFCDGGLYIKELINSDEGRTTPSVSELLNKKCICKFLDVLDVHDYEDAENILEHHHHHH” it is “soluble”; for “MLKMSTRTEAMSDKQVRAQYTREFKLEAVRQVRAGQAIAGVAKVLGIPKASLGNGVRLAAKGALGGSGGSDKADRVSPEQMEIARLRAEVARLRMERDIAKKAAAYFAQDTLRGTPGLTQLEHHHHHH” it is “not soluble”. As to “MLDKIRFTVLLDRPFYQPGQTIQGHVVCEPHHPLEIDCVEGRLHGEIQYFQQLPPNHNRNGSPLPPSKTRVLIDEKAQLWKYQTVSEMLGLDVFYDENQNRHFSSESASASSSSLFTTAATFPIQIELPHFAPPSFYCPGSPVSIRFTLEIQLYNQGFKIASHEENLVVLNYESIKRQVTPKPVNFQKTFNFPKERSISLEMLLPTDVFTTTARLENCITICNRWKQSLKYVHLNIVRRISALNQNNEVIDTVKIDTTGVGLPSKTKIAVGETYSFRPTFNVPALPPNIHVNGLFKTEYSLKVTIGRAHNFVLASYEVPITIVTMDQSSRRSMQKEDILVDISASNNTLNNLPVDLLA”, the “soluble on expression in E. coli” value was “not soluble”. “MKNKPLGLWLMSLLVLVGCKANQDDLTSYVAQVEREARKEVTKLKPILEFEATPYQQHKGREPFVLPKEALVQNQPLAKADCWQPVPRAKNGPLERYPLHQLRLKGVMSSGGSISALVQTPAGSVVKVKAGQYVGINNGKVTRVDDNYLLINETLPDGLGCWNQRNVKLALK”: the “soluble on expression in E. coli” value is “not soluble”. The same measure for “MSLGDAADPREMRKTFIVPAIKPFDHYDFSRAKIACNLAWLVAKAFGTENVPEELQEPFYTDQYDQEHIKPPVVNLLLSAELYCRAGSLILKSDAAKPLLGHDAVIQALAQKGLYVTDQEKLVTERDLHKKPIQMSAHLAMIDTLMMAYTVEMVSIEKVIACAQQYSAFFQATDLPYDIEDAVMYWINKVNEHLKDIMEQEQKLKEHHTVEAPGGQKEGHHHHHH”: “soluble”; for “MGSDKIHHHHHHMLRGKDATLAAIINIILDEEPETQDDIADRLGVSRRYVAKLLKPLVDGGAIMHPYVVNLEKLKEFEEYIETDRYFKEIYETFDRMGTNVIQNIDKVFDSLKTHDLDIAKSIILEDYALNRMEDEVNLVIKMKASKYMDMNSLMQVSNIAANIERCGDYLSNIAEEVVNGLLVDPAIKKEVFEIKEIISKMFAHAMNMVKSKTIETEIYELEGNLHKKLDTMMEKIAEHPDENLKDINQFIQFGMFLKDVERFGDRCLKIFELGREFHHNIPKNVTTPEYVRNLK”: “not soluble”; for “MSLGDSNSSTPLPDTSYACQANVMTQSNQLRTYQIMVESFVDGDTSIGHGTGYGTSHHNGDLQGVIDSLDYIQDLGMNAIWLTPVFESEAIAGQDHWADRLDATGYFATDYFKIDPKFGDLATAKTLVEEAHKRGLYVFFDGVFGHHKNGLIKPSPSGLLPSGSSNPVDYPASLDFYKEVATYWIKELKIDGWRLDQAYQVPTDAWTQLRKAVDEASQSVTYTNSKGDQVNPLGYMVAEIWKGESEIANEAYGSNSDPALCSAFDFPMRYRIVETLAVNESGVGGRGVDWLDNGYSTHNQYPTHAQPNLMIGNHDLVRFGDLLQRGNLADVNDAEYWLRHKAAFAFQAAYTGPITLYYGDEIGDQVDGFAAKEDNNTCAIQGLCDDHVARSSAKIEGVTATLDANQADLKAYVTSLMTMRDTHPALYQGSRTNLVASNGSYVDLKQSGSDKVLFALNTLESARTVILAQESVGTGELVDLLTNEKIAPSNGQYQLPMSPLQGRFFAVTEGHHHHHH”: “soluble”. Regarding “MGSDKIHHHHHHMFIDKQTVERHFSKSAHLYDGVNHVQRKMAHRLVQLLDEKRRDAKDEPRAILDIGCGTGWLTRECLKSFPQATIDAVDLSKQMLEVAEKNVSSHPNVQFIQGDIEKMVREKPSAKTYDVIVANAVFQWLDKPTETVAQLRSWLKPNGLLLFSTFGPDTFYELHDSFQLAAKQLGIIDERRGLDYLSKTEWKRTLDGLFAELTIHEEKAIESYATVEQFLHTVKKMGATYSQSSRPLSKRYYQLMKEIYEQRYRTEDSIPATYDCLYVLCQA”, the “soluble on expression in E. coli” value was “not soluble”. As for “MSVDLKRGETLPIHVNMTFPSLPCDVLSVDAIDMSGKHEVDLDTNIWKLRLNSHGHIIGTEYISDLVEKGHEHDGKEEHKNETETEALNILGFDQAAETMIKKVKQALADGEGCRVYGVLDVQRVAGNFHISVHGLNIYVAQMIFGGSKNVNVSHMIHDLSFGPKYPGIHNPLDDTNRILHDTSGTFKYYIKIVPTEYRYLSKDVLSTNQYSVTEYFTPMTEFDRTWPAVYFLYDLSPITVTIKEERRSFLHLITRLCAVLGGTFALTGMLDRWMFRFIESFNKKPSTRA”, the “soluble on expression in E. coli” value is listed as “soluble”. “AHHHHHHASAKWVCKICGYIYDEDAGDPDNGISPGTKFEELPDDWVCPICGAPKSEFEKLEDGSPKLMTGFVRASGYANKVRRVLFAITRGKVFPEEVVKAAGELNKIIFEKLQEMGVKKEDVVRISVDFNIEDGKIVWNLDSLEIETYKKEEEEKLALAMEEVEHMEKMFEETVKELEALSDKLREISKEISELVERMKQEYTGLKLRSE”: the “soluble on expression in E. coli” value is listed as “soluble”.
